The text below walks through data of US20110008312A1.

The target of this test is fibrillin-1 (human) (UniProt P35555). As to the kind of experiment: cell-based or functional assay.
UniProt P35555, sequence (P35555 45-2731 limits assumed): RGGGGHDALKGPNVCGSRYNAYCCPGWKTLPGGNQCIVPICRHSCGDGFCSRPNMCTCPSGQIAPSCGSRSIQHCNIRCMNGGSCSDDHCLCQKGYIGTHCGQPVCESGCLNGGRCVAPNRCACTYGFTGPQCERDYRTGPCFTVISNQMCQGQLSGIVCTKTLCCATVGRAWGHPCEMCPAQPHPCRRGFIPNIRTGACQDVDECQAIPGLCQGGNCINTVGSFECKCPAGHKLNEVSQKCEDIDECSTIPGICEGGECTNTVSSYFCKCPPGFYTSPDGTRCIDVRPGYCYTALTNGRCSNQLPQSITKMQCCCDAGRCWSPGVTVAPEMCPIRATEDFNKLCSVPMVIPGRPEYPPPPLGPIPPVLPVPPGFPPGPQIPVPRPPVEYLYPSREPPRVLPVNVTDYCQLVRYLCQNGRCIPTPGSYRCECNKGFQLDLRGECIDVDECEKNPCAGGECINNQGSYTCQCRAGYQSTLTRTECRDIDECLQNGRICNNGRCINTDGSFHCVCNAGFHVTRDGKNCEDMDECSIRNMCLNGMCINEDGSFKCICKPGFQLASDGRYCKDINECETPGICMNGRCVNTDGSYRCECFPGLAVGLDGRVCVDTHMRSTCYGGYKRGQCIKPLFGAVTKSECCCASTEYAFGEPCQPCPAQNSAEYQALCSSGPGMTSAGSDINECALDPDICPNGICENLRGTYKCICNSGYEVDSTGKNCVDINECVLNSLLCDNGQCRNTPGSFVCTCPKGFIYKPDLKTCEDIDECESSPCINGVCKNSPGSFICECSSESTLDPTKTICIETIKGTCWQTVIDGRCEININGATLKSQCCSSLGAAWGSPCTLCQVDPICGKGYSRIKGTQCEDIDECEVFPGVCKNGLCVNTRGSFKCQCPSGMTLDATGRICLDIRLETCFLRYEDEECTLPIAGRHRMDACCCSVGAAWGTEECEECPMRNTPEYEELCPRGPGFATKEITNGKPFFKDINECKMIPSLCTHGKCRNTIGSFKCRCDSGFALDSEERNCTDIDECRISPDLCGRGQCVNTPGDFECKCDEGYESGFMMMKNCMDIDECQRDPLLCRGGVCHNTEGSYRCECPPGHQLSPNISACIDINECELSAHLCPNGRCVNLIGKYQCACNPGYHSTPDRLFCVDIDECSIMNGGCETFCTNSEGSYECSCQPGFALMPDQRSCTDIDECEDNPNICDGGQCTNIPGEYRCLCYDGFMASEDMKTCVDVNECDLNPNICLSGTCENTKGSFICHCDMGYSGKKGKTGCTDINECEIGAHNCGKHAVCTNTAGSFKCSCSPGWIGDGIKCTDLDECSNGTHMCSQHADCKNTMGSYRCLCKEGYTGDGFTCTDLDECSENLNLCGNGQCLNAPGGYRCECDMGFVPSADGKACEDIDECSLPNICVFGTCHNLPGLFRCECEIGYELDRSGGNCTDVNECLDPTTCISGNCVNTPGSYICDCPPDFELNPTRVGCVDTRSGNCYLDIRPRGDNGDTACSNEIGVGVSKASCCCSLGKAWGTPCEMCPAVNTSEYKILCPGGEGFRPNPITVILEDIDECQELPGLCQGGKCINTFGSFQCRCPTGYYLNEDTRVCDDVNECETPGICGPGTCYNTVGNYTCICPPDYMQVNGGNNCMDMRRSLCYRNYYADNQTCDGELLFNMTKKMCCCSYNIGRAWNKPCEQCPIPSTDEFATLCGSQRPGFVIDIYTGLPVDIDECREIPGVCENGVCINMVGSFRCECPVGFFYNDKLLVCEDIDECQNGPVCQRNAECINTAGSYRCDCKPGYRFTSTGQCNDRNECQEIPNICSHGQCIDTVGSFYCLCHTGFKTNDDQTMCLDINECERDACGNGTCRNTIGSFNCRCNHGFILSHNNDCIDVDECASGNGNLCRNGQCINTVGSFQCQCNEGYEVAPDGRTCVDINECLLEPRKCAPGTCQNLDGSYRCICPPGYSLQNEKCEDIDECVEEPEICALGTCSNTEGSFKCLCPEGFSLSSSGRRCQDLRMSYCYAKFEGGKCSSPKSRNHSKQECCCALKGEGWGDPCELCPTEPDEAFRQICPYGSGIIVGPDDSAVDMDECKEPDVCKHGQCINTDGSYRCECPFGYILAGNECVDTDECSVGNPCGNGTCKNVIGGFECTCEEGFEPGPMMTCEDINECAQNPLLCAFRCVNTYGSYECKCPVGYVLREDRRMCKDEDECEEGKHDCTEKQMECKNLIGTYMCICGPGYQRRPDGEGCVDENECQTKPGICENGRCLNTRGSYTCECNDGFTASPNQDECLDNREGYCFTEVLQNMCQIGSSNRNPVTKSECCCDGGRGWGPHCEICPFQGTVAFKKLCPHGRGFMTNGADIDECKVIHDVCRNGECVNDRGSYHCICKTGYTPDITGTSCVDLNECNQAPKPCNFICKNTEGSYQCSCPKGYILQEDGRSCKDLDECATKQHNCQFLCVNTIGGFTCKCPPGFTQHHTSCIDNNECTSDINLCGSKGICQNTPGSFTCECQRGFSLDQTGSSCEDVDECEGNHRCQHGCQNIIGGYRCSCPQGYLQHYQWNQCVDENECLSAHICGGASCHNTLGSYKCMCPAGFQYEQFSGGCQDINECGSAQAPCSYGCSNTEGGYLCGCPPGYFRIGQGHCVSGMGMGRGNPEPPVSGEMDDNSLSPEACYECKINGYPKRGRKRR

elastin, sequence (P15502 27-786 limits assumed): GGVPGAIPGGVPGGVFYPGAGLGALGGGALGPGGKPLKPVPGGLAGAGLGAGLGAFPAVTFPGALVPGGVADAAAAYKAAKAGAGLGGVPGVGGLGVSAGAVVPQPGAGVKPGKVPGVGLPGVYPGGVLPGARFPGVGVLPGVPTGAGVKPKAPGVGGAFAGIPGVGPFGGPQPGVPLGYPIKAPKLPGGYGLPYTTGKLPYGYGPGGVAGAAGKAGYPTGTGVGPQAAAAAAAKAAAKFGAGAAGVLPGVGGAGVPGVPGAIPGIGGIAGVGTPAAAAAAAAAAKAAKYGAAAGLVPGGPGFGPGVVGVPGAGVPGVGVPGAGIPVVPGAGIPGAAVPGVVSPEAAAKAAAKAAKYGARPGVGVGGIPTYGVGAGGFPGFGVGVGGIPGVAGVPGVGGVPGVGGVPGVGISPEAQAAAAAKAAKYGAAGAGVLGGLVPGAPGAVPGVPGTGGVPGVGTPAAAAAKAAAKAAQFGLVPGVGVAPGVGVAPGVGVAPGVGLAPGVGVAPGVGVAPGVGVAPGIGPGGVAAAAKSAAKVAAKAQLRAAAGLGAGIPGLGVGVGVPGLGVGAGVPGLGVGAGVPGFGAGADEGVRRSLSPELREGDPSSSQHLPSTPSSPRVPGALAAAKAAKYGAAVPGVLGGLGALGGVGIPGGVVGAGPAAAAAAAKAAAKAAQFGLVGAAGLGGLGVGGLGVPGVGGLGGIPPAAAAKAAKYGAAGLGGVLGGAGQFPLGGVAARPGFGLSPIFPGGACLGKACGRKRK

Consider elastin (from UniProt P15502 27-786), for which the amount of elastin deposition to the extracellular matrix (% vs CS-free), keloid cells, CS-A added was determined as 87%; the amount of elastin deposition to the extracellular matrix (% vs CS-free), keloid cells, CS-A and CS-B added was determined as 66.3%; the amount of elastin deposition to the extracellular matrix (% vs CS-free), keloid cells, CS-A and CS-C added came out at 67.4%; the amount of elastin deposition to the extracellular matrix (% vs CS-free), keloid cells, CS-A, CS-B and CS-C added was found to be 37.6%. The amount of elastin deposition to the extracellular matrix (% vs CS-free), keloid cells, CS-B added came out at 95.9%; the amount of elastin deposition to the extracellular matrix (% vs CS-free), keloid cells, CS-B and CS-C added was found to be 91%; the amount of elastin deposition to the extracellular matrix (% vs CS-free), keloid cells, CS-C added came out at 86.7%; the amount of elastin deposition to the extracellular matrix (% vs CS-free), keloid cells, CS-free worked out at 100%.
